Results reported in patent US20250043002A1.

Target: human PD1 expressed on Jurkat/AP1-Luc/hPD1 cells (human) (UniProt Q15116)
Experiment: cell-based or functional assay

human PD1 expressed on Jurkat/AP1-Luc/hPD1 cells (human), sequence (Q15116 25-288): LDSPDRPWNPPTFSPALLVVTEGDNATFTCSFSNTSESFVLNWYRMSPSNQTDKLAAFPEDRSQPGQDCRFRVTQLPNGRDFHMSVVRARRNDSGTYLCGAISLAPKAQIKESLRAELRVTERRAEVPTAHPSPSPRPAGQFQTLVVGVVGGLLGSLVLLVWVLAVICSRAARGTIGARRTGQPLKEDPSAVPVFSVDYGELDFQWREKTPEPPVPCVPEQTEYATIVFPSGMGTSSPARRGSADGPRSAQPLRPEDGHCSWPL

B1: REGN2810 (cemiplimab, LIBTAYO), anti-PD1 antibody (antibody, INN chains, looked up, V domains shown)
VH: EVQLLESGGVLVQPGGSLRLSCAASGFTFSNFGMTWVRQAPGKGLEWVSGISGGGRDTYFADSVKGRFTISRDNSKNTLYLQMNSLKGEDTAVYYCVKWGNIYFDYWGQGTLVTVSS
VL: DIQMTQSPSSLSASVGDSITITCRASLSINTFLNWYQQKPGKAPNLLIYAASSLHGGVPSRFSGSGSGTDFTLTIRTLQPEDFATYYCQQSSNTPFTFGPGTVVDFR
  AP-1 luciferase EC50, WSU-DLCL2/hPD-L1 + Jurkat/AP1-Luc/hPD1: 0.29 nM
  AP-1 luciferase MAX (RLU), WSU-DLCL2/hPD-L1 + Jurkat/AP1-Luc/hPD1: 1.1e+06 RLU
